Here are results for one molecule from publication PMC4140855, “Production of an Attenuated Phenol-Soluble Modulin Variant Unique to the MRSA Clonal Complex 30 Increases Severity of Bloodstream Infection” (PLoS Pathogens, 2014).

Where no end group is shown, it is not given here. The star is where a group is joined. For = O=C*

Common to all, as to experiment: Ca2+ flux in FPR-transfected HL60 cells, one-site binding model
In general terms: Calcium assays in cells follow changes in intracellular calcium, usually with a dye or a luminescent sensor.

In assay [1] the target is T1, FPR1 (Homo sapiens, UniProt P21462).
T1 chain: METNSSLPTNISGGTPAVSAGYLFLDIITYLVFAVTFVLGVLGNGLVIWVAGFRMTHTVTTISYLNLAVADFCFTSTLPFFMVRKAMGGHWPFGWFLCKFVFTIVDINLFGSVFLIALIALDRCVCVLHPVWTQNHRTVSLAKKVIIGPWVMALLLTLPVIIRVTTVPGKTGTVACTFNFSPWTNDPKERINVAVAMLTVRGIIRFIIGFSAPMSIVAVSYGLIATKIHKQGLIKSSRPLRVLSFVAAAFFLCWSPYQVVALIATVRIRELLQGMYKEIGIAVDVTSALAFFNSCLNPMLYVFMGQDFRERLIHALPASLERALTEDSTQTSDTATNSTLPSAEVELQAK

In assay [2] the target is T2, FPR2 (Homo sapiens, UniProt P25090).
T2 chain: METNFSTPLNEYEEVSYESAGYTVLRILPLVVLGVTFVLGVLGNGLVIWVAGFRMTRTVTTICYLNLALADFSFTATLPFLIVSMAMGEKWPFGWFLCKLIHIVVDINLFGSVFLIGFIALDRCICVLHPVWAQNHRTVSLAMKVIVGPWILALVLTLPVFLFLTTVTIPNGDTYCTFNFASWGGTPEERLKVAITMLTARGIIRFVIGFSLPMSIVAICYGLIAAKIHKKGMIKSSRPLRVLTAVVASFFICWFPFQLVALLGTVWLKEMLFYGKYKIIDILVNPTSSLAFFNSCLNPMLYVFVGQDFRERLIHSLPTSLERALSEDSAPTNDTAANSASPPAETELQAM

Assay [3] concerns the target T3, FPR3 (Homo sapiens, UniProt P25089).
T3 chain: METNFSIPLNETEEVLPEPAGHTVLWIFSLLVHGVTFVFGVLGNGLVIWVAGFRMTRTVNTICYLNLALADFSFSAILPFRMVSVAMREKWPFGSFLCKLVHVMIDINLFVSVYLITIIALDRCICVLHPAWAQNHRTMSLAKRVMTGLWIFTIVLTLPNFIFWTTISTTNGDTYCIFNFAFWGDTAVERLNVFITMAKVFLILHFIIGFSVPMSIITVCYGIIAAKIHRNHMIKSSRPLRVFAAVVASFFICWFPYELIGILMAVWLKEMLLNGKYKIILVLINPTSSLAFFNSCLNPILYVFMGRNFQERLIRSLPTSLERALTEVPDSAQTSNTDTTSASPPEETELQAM

With For-MEFVAKLFKFFKDLLGKFLGNN [PSMα3], the Kd in assay [1] was determined as 616 nM; in assay [2] it was 11.9 nM; in assay [3] it was 1380 nM.

As usually defined, the Kd is the constant that tells how readily two partners part at equilibrium. A higher Kd goes with lower affinity.
